Numbering of substitutions follows the chain as printed.

The target in the experiment is PD-L1 on CHO cell line highly expressing PD-L1 (PD-1/PD-L1 blockade bioassay kit, promega J1250) (UniProt Q9NZQ7 19-290, limits assumed). Nature of the experiment: cell-based or functional assay.
Chain of PD-L1 on CHO cell line highly expressing PD-L1 (PD-1/PD-L1 blockade bioassay kit, promega J1250) (Q9NZQ7 19-290 limits assumed): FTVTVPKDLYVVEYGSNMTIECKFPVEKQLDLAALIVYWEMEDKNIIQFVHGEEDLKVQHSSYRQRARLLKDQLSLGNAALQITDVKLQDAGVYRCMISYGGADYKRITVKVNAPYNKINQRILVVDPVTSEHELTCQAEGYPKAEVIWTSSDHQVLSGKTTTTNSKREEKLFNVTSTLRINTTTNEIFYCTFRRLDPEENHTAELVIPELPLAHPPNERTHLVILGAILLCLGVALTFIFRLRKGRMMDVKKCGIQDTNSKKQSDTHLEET

B1: PDL1-16E12 (LS/4A6) (antibody, V domains shown)
VH: QMQLVQSGAEVKKPGSSVKVSCKASGGTFSSYAISWVRQAPGQGLEWMGRIIPILGIANYAQKFQGRVTITADKSTSTAYMELSSLRSEDTAVYYCAKPRDGYNLVAFDIWGQGTMVTVSS
VL: QLVLTQPTSVSGAPGQRVIISCTGSSSNIGAGYDVHWYQQLPGTAPKLLIYGNTNRPSGVPDRFSGSKSGTAASLAITGLQAEDEADYYCQSFDRSRSGSNVFGTGTKVTVL
B1: the “Average *EC50 [nM], PD-1/PD-L1 blockade bioassay” value (“Average *EC50 [nM]” for short) came to 0.48 nM.

B2: PDL1-16E12 (LS/4A10) (antibody, V domains shown)
VH: B1 VH
VL: QLVLTQPPSVSGAPGQRVTISCTGSNSNIGAGYDVHWYQQLPGTAPKLLIHGNNIRPSGVPDRFSGSRSGTSASLAITGLQADDEANYFCQSYDNSLRGSVFGTGTKVTVL
With B2, the “Average *EC50 [nM]” value was found to be 0.45 nM.

B3: PDL1-16E12 (LS/4H11) (antibody, V domains shown)
VH: B1 VH
VL: QLVLTQPPSVSGAPGQRVTISCTGSSSNVGAGYDVHWYQQLPGTAPKLLIYGNNNRPSGVPARFSGSKSGTSASLAITGLQAEDEADYYCQSYDSRLGVVFGGGTKLTVL
As to B3, the “Average *EC50 [nM]” value worked out at 1.02 nM.

B4: PDL1-16E12 (LS/4G1) (antibody, V domains shown)
VH: B1 VH
VL: QLVLTQPPSVSGAPGQRVTISCTGGSSNIGAGYDVHWYQQLPGTAPKLLLFGNTNRPSGVPGRFSGSKSGSSASLAITGLQSDDEADYYCQSYDSSLSGSVFGTGTKVTVL
Regarding B4, the “Average *EC50 [nM]” value was determined as 0.47 nM.

B5: PDL1-16E12 (LS/4E5) (antibody, V domains shown)
VH: B1 VH
VL: B3 VL with R17G, S25D, V29I, L41F, G52E, N54S, A62D, V99A
Consider B5, for which the “Average *EC50 [nM]” value came to 0.45 nM.

B6: PDL1-16E12 (LS/4D4) (antibody, V domains shown)
VH: B1 VH
VL: QLVLTQPSSVSGAPGQRVTISCTGSSSNLGAPYDVHWYQQLPGTAPKLLIYGNSNRPSGVPDRFSVSKSGTSASLAITGLQAEDEADYYCQSYDSSLSSSVFGGGTKLTVL
Take B6: the “Average *EC50 [nM]” value stood at 0.57 nM.

B7: PDL1-16E12 (LS/4B12) (antibody, V domains shown)
VH: B1 VH
VL: QLVLTQPPSVSGAPGQRVTISCTGSSSNIGAGYDVHWYQQLPGTAPKLIIYGDTKRASGVPDRFSGSKSGTSASLAITGLQAEDGADYYCQSYDNSLSAHAVFGTGTKVTVL
Take B7: the “Average *EC50 [nM]” value was 0.46 nM.

B8: PDL1-16E12 (LS/4A8) (antibody, V domains shown)
VH: B1 VH
VL: B3 VL with V29I, Q40H, L41R, T44K, K47Q, N53D, V60I, A62D, A82P, Y93F
For B8, the “Average *EC50 [nM]” value was 0.83 nM.

B9: PDL1-16E12 (LS/4H9) (antibody, V domains shown)
VH: B1 VH
VL: QFVLTQPPSVSGAPGQRVTISCTGSRSNFGAGHDVHWYQQLPGTAPKLLIYGNNNRPSGVPDRFSGSKSGTSASLAIAGLQSDDEADYYCQSYDSSLSGSVFGTGTKVTVL
For B9, the “Average *EC50 [nM]” value was found to be 0.63 nM.

B10: PDL1-16E12 (LS/4H6) (antibody, V domains shown)
VH: B1 VH
VL: QLVLTQPPSVSAAPGQTVTISCTGSSSNIGAGYDVHWYQQFPGTAPKLLIYGNNNRPSGVPDRFSGSKSGTSASLAITGLQTDDEADYFCQSYDSSLRVSSVFGTGTKVTVL
Turning to B10, the “Average *EC50 [nM]” value amounted to 0.51 nM.

B11: PDL1-16E12 (LS/4F11) (antibody, V domains shown)
VH: B1 VH
VL: B9 VL with R26S, F29I, H33S, A78T, S82A, D83E, S98N, S100V, T104G, V108L
On to B11, for which the “Average *EC50 [nM]” value was 1.68 nM.

(Values after patent US20190322750A1 (Y BIOLOGICS, published 2019).)
